Experimental data published in the supplement of paper PMC10567573.

B1: INTS4 (parent)
chain: IRLVDDAFGKICHMVSDGSWVVRV
B2: ZNF8 (parent)
chain: RTHTGEKPYTCSVCGKSFSRTTCL

Variants of: B1
Test: protein stability index of a GFP-peptide fusion (GPS, HEK-293T) (PSI 1-6); higher = more stable
Details: c terminus: a fixed tail appended
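Also: lentivirally expressed fusions sorted by FACS into six bins by GFP to DsRed ratio, PSI derived from sequencing read proportions per bin multiplied by bin number.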

Protein stability index, by site and new letter:
R23: L 4.2
M14: Y 1.64 | S 2.48 | Q 1.49 | N 5.13 | T 3.71
L3: I 3.47
G9: K 1.85
D17: G 2.05 | V 3.15 | M 1.92 | K 1.48
R2: F 4.79
H13: Y 2.38
F8: R 2.46 | I 2.78 | W 3.06
S16: F 2.14 | W 1.91 | D 1.29
V4: K 3.23 | T 1.88 | R 1.47
S19: Q 3.45 | I 3.87 | P 3.43
V21: L 2.25 | F 2.62
C12: W 3 | F 1.73
V24: D 1.47 | Q 2.04
D5: S 2.3 | T 3.23
D6: E 3.96 | V 2.35
W20: V 3.08 | E 1.64
G18: D 3.61 | Y 1.62
K10: P 2.29 | R 4.19
V15: L 2.74 | R 3.53 | F 2.51 | N 3.28
A7: M 2.62
I1: M 3.29

Variants of: B2
Test: as above
Details: c terminus: a fixed tail appended

Protein stability index, by site and new letter:
C14: M 2.88 | F 2.1 | K 3.06 | L 2.76 | R 2.19 | P 2.82 | N 2.87 | V 3.13 | W 1.42 | I 2.34 | E 2.46 | Y 2.06 | H 2.89 | Q 2.17 | A 2.17 | G 1.99 | T 2.46 | D 2.77 | S 2.41
F18: T 2.48 | G 2.84 | S 2.73 | R 2.56 | V 2.5 | E 3.37 | Y 2.23 | L 3.4 | N 2.53 | I 1.54 | D 2.92 | M 1.89 | W 2.43 | K 2.5 | C 3.45 | H 4.78 | P 2.01 | Q 2.39
V13: N 2.26 | H 2.61 | C 3.54 | S 2.56 | Q 1.28 | W 1.65 | L 2.23 | K 2.61 | Y 2.43 | E 2.47 | I 2.09 | F 2.48 | P 1.97 | G 2 | D 2.46 | M 2.14 | R 1.99 | T 1.89 | A 2.26
Y9: W 2.42 | V 2.65 | S 2.62 | T 2.59 | R 2.29 | Q 2.31
C11: T 2.39 | W 1.82 | N 2.79 | I 2.01 | H 1.99 | Q 3.18 | S 2.52 | D 2.83 | K 2.25 | F 2.23 | L 2.43 | R 2.39 | P 2.56 | E 2.48 | M 3.35 | G 2.33 | V 2.24 | A 2.88 | Y 1.86
T21: N 1.99 | V 2.36 | Q 2.49 | D 3.37 | R 2.39 | G 3.27 | M 2.39 | S 2.16 | W 1.72 | P 2.58 | F 1.71 | Y 2.32 | E 2.67 | I 2.15 | A 2.7 | K 2.4 | L 2.83 | C 5.19 | H 3.29
G15: K 2.25 | V 1.73 | E 2.15 | M 1.6 | W 1.43 | L 1.99 | C 1.83 | A 1.88 | H 1.81 | Y 1.32 | N 1.92 | T 1.65 | S 1.87 | I 1.46 | Q 1.75 | P 2.57 | D 2.36 | R 2.17 | F 2.28
T22: E 4.28 | P 2.43 | F 2.3 | H 2.24 | N 2.94 | S 1.82 | W 1.86 | Y 1.98 | C 4.01 | R 1.8 | M 1.63 | L 1.9 | A 2.56 | K 2.97 | D 2.27 | Q 2.5 | G 2.1 | V 2.16
S17: A 2.48 | D 2.55 | C 3.72 | G 1.73 | M 2.03 | Q 2.58 | T 2.63 | P 3.07 | E 2.4 | K 2.87 | V 2.67 | L 2.34 | H 2.69 | W 1.82 | Y 2.14 | I 2.17 | R 2.77 | N 2.36 | F 1.48
L24: V 3.06 | W 2.8 | C 4.72 | Q 2.96 | E 3.28 | T 3.08 | R 2.73 | H 3.46 | F 2.06 | A 2.56 | N 3.03 | D 3.21 | M 2.87 | Y 2.48 | K 2.76 | P 3.17 | I 2.8 | S 2.06
S12: W 2.17 | E 2.72 | M 2.34 | I 2.11 | N 2.24 | G 2.02 | K 2.13 | D 2.59 | F 2.05 | R 2.21 | A 2.96 | L 2.22 | Q 2.33 | V 2.21 | H 2.41 | Y 2.27 | P 2.7 | T 2.52 | C 2.13
K16: R 2.45 | A 1.85 | V 1.96 | Y 1.87 | G 2.41 | S 1.75 | E 2.61 | H 1.99 | D 2.08 | M 2.2 | L 2.09 | P 1.81 | Q 2.6 | F 1.77 | C 2.16 | N 2.58 | W 1.84 | T 1.94 | I 1.74
S19: V 3.91 | G 2.35 | Q 2.65 | E 2.67 | Y 2.33 | F 2.64 | D 2.79 | H 2.59 | W 2.42 | N 2.67 | C 3.7 | R 3.8 | I 2.07 | P 2.26 | M 2.5 | A 1.36 | K 2.45 | T 2.41 | L 2.51
R20: G 3.17 | A 2.55 | D 3.46 | E 3.14 | N 2.76 | I 1.75 | V 2.02 | K 2.76 | T 2.77 | L 2.01 | P 2.75 | Y 2.91 | Q 2.87 | F 2.15 | W 2.47 | S 2.17 | M 2.18 | H 3.75 | C 5.54
C23: E 3 | Q 2.24 | S 2.03 | F 2.11 | K 2.28 | P 2.63 | A 2.21 | W 1.78 | L 1.93 | T 2.1 | Y 2.57 | R 1.84 | D 2.46 | V 1.59 | H 2.26 | G 2.43 | M 2.19
T10: L 2.05 | E 2.39 | V 2.72 | Q 2.6 | I 2.65 | A 2.06 | W 1.75 | K 2.15 | N 2.2 | R 2.51 | P 2.27 | G 2.21 | Y 1.98 | D 2.43 | C 2.83 | S 2.36 | F 1.89 | H 2.75 | M 2.19
